These results are taken from article PMC7093453.

Assay [1] concerns the target RCC: Rba. sphaeroides reaction centre with SpyCatcherΔ attached directly to the N-terminus of PufL (Rhodobacter sphaeroides) (UniProt P0C0Y9).
Assay [2] deals with wild-type (WT) reaction centre (RC) of Rhodobacter sphaeroides (Rhodobacter sphaeroides) (UniProt P0C0Y8).
For assay [3], the target named is RCC: Rba. sphaeroides reaction centre with SpyCatcherΔ attached directly to the N-terminus of PufL (Rhodobacter sphaeroides) (UniProt P0C0Y9). This is another data set of the same source.
Assay [4] addresses RC4C: Rba. sphaeroides reaction centre with SpyCatcherΔ attached to the N-terminus of PufL via a four residue linker (Rhodobacter sphaeroides) (UniProt P0C0Y9).

Take “LHCI-Td: A. thaliana LHCI heterodimer of unadapted Lhca1 (L1) and SpyTagΔ-adapted Lhca4 (Td-L4) (from UniProt Q01667 36-241) (complex)”: in assay [1], the E (P870): apparent energy transfer efficiency from the rate of RC P870 photobleaching (650 nm excitation), LHCI#RC chimera in solution is 20.2% and the EFL: apparent energy transfer efficiency from quenching of LHC emission, LHCI#RC chimera in solution amounted to 20.7%. Also, in assay [2], the E (P870): apparent energy transfer efficiency from the rate of RC P870 photobleaching (650 nm excitation), mixture in solution turned out to be 1.3% and the EFL: apparent energy transfer efficiency from quenching of LHC emission, mixture in solution came to 10.3%. Besides, in assay [3], the Ea4: apparent energy transfer efficiency for the LHCI#RC chimera, from E (P870) was found to be 20.1%.

Turning to “LHCII-T: full SpyTag sequence added to the C-terminus of the full A. thaliana Lhcb1”, in assay [1], the E (P870): apparent energy transfer efficiency from the rate of RC P870 photobleaching (650 nm excitation), LHCII#RC chimera in solution was 22.8% and the EFL: apparent energy transfer efficiency from quenching of LHC emission, LHCII#RC chimera in solution turned out to be 19.6%. Further, in assay [2], the E (P870): apparent energy transfer efficiency from the rate of RC P870 photobleaching (650 nm excitation), mixture in solution worked out at 1.2% and the EFL: apparent energy transfer efficiency from quenching of LHC emission, mixture in solution is 0.8%.

Consider “Td-dLHCII: SpyTagΔ added to the N-terminus of the truncated A. thaliana Lhcb1”, for which, in assay [4], the E (P870): apparent energy transfer efficiency from the rate of RC P870 photobleaching (650 nm excitation), RC#LHCII chimera in solution is 21% and the EFL: apparent energy transfer efficiency from quenching of LHC emission, RC#LHCII chimera in solution is 20.3%.

In the case of “Td-LHCI-Td: A. thaliana LHCI heterodimer of SpyTagΔ-adapted Lhca1 (Td-L1) and SpyTagΔ-adapted Lhca4 (Td-L4) (complex)”, in assay [1], the E (P870): apparent energy transfer efficiency from the rate of RC P870 photobleaching (650 nm excitation), RC#LHCI#RC chimera in solution is 29.1% and the EFL: apparent energy transfer efficiency from quenching of LHC emission, RC#LHCI#RC chimera in solution is 27.4%. Also, in assay [2], the E (P870): apparent energy transfer efficiency from the rate of RC P870 photobleaching (650 nm excitation), mixture in solution (molar ratio of RC to LHC two) worked out at 3.3% and the EFL: apparent energy transfer efficiency from quenching of LHC emission, mixture in solution is 9.3%. In assay [3], the Ea1: efficiency of energy transfer to the Lhca1-connected RC in the RC#LHCI#RC chimera, from E (P870) (Eq. 5) is 13.9% and the Ea1: efficiency of energy transfer to the Lhca1-connected RC in the RC#LHCI#RC chimera, from EFL (Eq. 5) was found to be 10.4%.
